Data: article PMC11568366, “Phosphorylation of cytochrome c at tyrosine 48 finely regulates its binding to the histone chaperone SET/TAF‐Iβ in the nucleus” (Protein Science : A Publication of the Protein Society, 2024)

B1: wild-type cytochrome c (reduced) (natural protein)
chain: not shown
notes: cytochrome c, human; Hemeprotein, kept reduced with sodium ascorbate in ITC and NMR; Construct and expression as in cited earlier work (Moreno-Beltrán et al. 2015; Olteanu et al. 2003); also called WT Cc; Cc
B2: Y48D cytochrome c phosphomimetic mutant (reduced) (natural protein)
chain: not shown
notes: cytochrome c, human; Hemeprotein, reduced in ITC; also called Y48D Cc
B3: Y48E cytochrome c phosphomimetic mutant (reduced) (natural protein)
chain: not shown
notes: cytochrome c, human; Hemeprotein, reduced in ITC; also called Y48E Cc

Assays:
[1] = biological target: T1, SET/template-activating factor Iβ (SET/TAF-Iβ), recombinant (UniProt Q01105-2 1-277); test: ITC; 300 μM reduced Cc injected (17 x 2.91 μL) into 30 μM SET/TAF-Iβ (as homodimer) in the cell, 25°C, 10 mM sodium phosphate pH 7.4; WT fitted with two cooperative binding sites, mutants with independent binding sites; details: both partners purified
T1 construct: SET/TAF-Iβ, the beta isoform of SET; construct in pET28a(+) from González-Arzola et al. 2015; Concentration is expressed as the functional homodimer

[2] = biological target: T1, SET/template-activating factor Iβ …; test: as above; details: both partners purified; remark: listed apart in the source

T1 sequence (Q01105 other isoform, or with tags, fused parts or gaps): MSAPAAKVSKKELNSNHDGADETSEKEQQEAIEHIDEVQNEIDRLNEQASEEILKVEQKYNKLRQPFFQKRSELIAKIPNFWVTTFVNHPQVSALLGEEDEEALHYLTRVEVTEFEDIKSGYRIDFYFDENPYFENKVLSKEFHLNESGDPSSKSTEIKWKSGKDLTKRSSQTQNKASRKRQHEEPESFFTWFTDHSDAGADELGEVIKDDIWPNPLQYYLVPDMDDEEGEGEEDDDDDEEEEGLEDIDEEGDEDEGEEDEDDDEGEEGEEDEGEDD

| Binder | dH1 (first site) [1] [kJ/mol] | dH2 (second site) [1] [kJ/mol] | stoichiometry N [2] | Kd [1] [µM] | dH [1] [kJ/mol] | stoichiometry N [1] |
| --- | --- | --- | --- | --- | --- | --- |
| B1 | 5.44 | 28.9 | 2 Cc per SET/TAF-Iβ homodimer |  |  |  |
| B2 |  |  |  | 22 | -31.4 | 2.2 |
| B3 |  |  |  | 110 | -79.5 | 2.3 |
